These are literature values, as cited in patent US20260217837A1, “FGFR3 BINDING MOLECULES AND METHODS OF USE THEREOF” (Regeneron Pharmaceuticals, Inc., priority 2023, published 2026).

Read-outs that look alike come from different tables or passages of the source.

For the data set, the system named is FGFR3.
Where [1] appears, read: Exemplary FGFR3 D3 binding sequences, antibodies of cited PCT publications.
Where [2] appears, read: Table T-1, exemplary FGFR3 parental antibodies of cited publications.

B1: PRO-029: anti-FGFR3 IIIc antibody of WO 2006/048877 A2; SEQ ID NO: 40/49 (antibody, V domains shown)
VH: QVQLVQSGAEVKKPGASVKVSCKASGYTFTSYYMHWVRQAPGQGLEWMGWINPNSGGTNYAQKFQGRVTMTRDTSISTAYMELSSLRSEDTAVYYCARTWQYSYFYYLDGGYYFDIWGQGTLVTVSS
VL: DIVLTQSPATLSLSPGERATLSCRASQSVSSSYLAWYQQKPGQAPRLLIYGASSRATGVPARFSGSGSGTDFTLTISSLEPEDFATYYCQQTNNAPVTFGQGTKVEIKRT
Regarding B1, the Activity entry is, setting by setting: under setting [1], “Antagonistic”; under setting [2], “Antagonistic”.

B2: MS-Pro-55: anti-FGFR3 Ig-like domain 3 antibody of WO 2002/102972 A2; SEQ ID NO: 44/45 (antibody, V domains shown)
VH: QVQLVQSGAEVKKPGASVKVSCKASGYTFTSYYMHWVRQAPGQGLEWMGWINPNSGGTNYAQKFQGRVTMTRDTSISTAYMELSSLRSEDTAVYYCARSMNSTMYWYLRRVLFDHWGQGTLVTVSS
VL: DIALTQPASVSGSPGQSITISCTGTSSDVGGYNYVSWYQQHPGKAPKLMIYDVSNRPSGVSNRFSGSKSGNTASLTISGLQAEDEADYYCQSYDMYNYIVFGGGTKLTVLGQ
For B2, the Activity result under setting [1] is given as “Antagonistic” and the Activity result under setting [2] was “Antagonistic”.

B3: PRO-055: anti-FGFR3 IIIc antibody of WO 2006/048877 A2; SEQ ID NO: 44/45 (antibody, V domains shown)
VH: QVQLVQSGAEVKKPGASVKVSCKASGYTFTSYYMHWVRQAPGQGLEWMGWINPNSGGTNYAQKFQGRVTMTRDTSISTAYMELSSLRSEDTAVYYCARSMNSTMYWYLRRVLFDHWGQGTLVTVSS
VL: DIALTQPASVSGSPGQSITISCTGTSSDVGGYNYVSWYQQHPGKAPKLMIYDVSNRPSGVSNRFSGSKSGNTASLTISGLQAEDEADYYCQSYDMYNYIVFGGGTKLTVLGQ
On to B3, for which the Activity result reads like this: under setting [1], “Antagonistic”; under setting [2], “Antagonistic”.

B4: 15D8: anti-FGFR3 Igl 3 antibody of WO 2010/002862 A2; SEQ ID NO: 51/52 (antibody, V domains shown)
VH: EIQLQQSGPELVKPGASVKVSCKASGYAFTSYNMYWVKQSHGKSLEWIGYIDPYNGGTSYNQKFKGKATLTVDKSSSTAYMHLNSLTSEDSAVYYCAREGGNYEAWFAYWGQGTLVTVSA
VL: QIVLTQSPALMSASPGEKVTMTCSASSSVSYMYWYQQKPRSSPKPWIYLTSYLASGVPARFSGSGSGTSYSLTISSMEAEDAATYYCQQWSSYPLTFGAGTKLELK
Consider B4, for which the Activity result is, setting by setting: under setting [1], “Antagonistic”; under setting [2], “Antagonistic”.

B5: PRO-026: anti-FGFR3 IIIc antibody of WO 2006/048877 A2; SEQ ID NO: 36/37 (antibody, V domains shown)
VH: QVQLVQSGAEVKKPGASVKVSCKASGYTFTSYYMHWVRQAPGQGLEWMGWINPNSGGTNYAQKFQGRVTMTRDTSISTAYMELSSLRSEDTAVYYCARGYWYAYFTYINYGYFDNWGQGTLVTVSS
VL: DIALTQPASVSGSPGQSITISCTGTSSDVGGYNYVSWYQQHPGKAPKLMIYDVSNRPSGVSNRFSGSKSGNTASLTISGLQAEDEADYYCQSYDNNSDWFGGGTKLTVLGQ
Regarding B5, the Activity result was “Antagonistic” under setting [1] and “Antagonistic” under setting [2].

B6: PRO-012: anti-FGFR3 antibody of WO 2006/048877 A2; SEQ ID NO: 47/27 (antibody, V domains shown)
VH: QVQLKESGPALVKPTQTLTLTCTFSGFSLSTSGVGVGWIRQPPGKALEWLALIDWDDDKYYSTSLKTRLTISKDTSKNQVVLTMTNMDPVDTATYYCARYHSWYEMGYYGSTVGYMFDYWGQGTLVTVSS
VL: DIELTQPPSVSVAPGQTARISCSGDALGDKYASWYQQKPGQAPVLVIYDDSDRPSGIPERFSGSNSGNTATLTISGTQAEDEADYYCQSYDFDFAVFGGGTKLTVLGQ
With B6, the Activity result under setting [2] is on record as “Antagonistic”.

B7: MS-PRO-12: anti-FGFR3 Ig-like domain 2 antibody of WO 2002/102972 A2; SEQ ID NO: 26/27 (antibody, V domains shown)
VH: QVQLKESGPALVKPQTLTLTCTFSGFSLSTSGVGVGWIRQPPGKALEWLALIDWDDDKYYSTSLKTRLTISKDTSKNQVVLTMTNMDPVDTATYYCARYHSWYEMGYYGSTVGYMFDYWGQGTLVTVSS
VL: DIELTQPPSVSVAPGQTARISCSGDALGDKYASWYQQKPGQAPVLVIYDDSDRPSGIPERFSGSNSGNTATLTISGTQAEDEADYYCQSYDFDFAVFGGGTKLTVLGQ
On to B7, for which the Activity entry under setting [2] is reported as “Antagonistic”.

B8: PRO-001: anti-FGFR3 antibody of WO 2006/048877 A2; SEQ ID NO: 46/29 (antibody, V domains shown)
VH: QVQLQQSGPGLVKPSQTLSLTCAISGDSVSSNSAAWNWIRQSPGRGLEWLGRTYYRSKWYNDYAVSVKSRITINPDTSKNQFSLQLNSVTPEDTAVYYCARSYYPDFDYWGQGTLVTVSS
VL: DIELTQPPSVSVAPGQTARISCSGDALGDKYASWYQQKPGQAPVLVIYDDSDRPSGIPERFSGSNSGNTATLTISGTQAEDEADYYCQSYDGPDLWVFGGGTKLTVLGQ
Regarding B8, the Activity result under setting [2] is recorded as “Antagonistic”.

B9: PRO-002: anti-FGFR3 antibody of WO 2006/048877 A2; SEQ ID NO: 24/25 (antibody, V domains shown)
VH: QVQLVQSGAEVKKPGASVKVSCKASGYTFTSYYMHWVRQAPGQGLEWMGWINPNSGGTNYAQKFQGRVTMTRDTSISTAYMELSSLRSEDTAVYYCARDFLGYEFDYWGQGTLVTVSS
VL: DIELTQPPSVSVAPGQTARISCSGDALGDKYASWYQQKPGQAPVLVIYDDSDRPSGIPERFSGSNSGNTATLTISGTQAEDEADYYCQSYDYSADYVFGGGTKLTVLGQ
For B9, the Activity entry under setting [2] was “Antagonistic”.

B10: MS-Pro-54: anti-FGFR3 Ig-like domain 3 antibody of WO 2002/102972 A2; SEQ ID NO: 42/43 (antibody, V domains shown)
VH: QVQLVQSGAEVKKPGASVKVSCKASGYTFTSYYMHWVRQAPGQGLEWMGWINPNSGGTNYAQKFQGRVTMTRDTSISTAYMELSSLRSEDTAVYYCARNMAYTNYQYVNMPHFDYWGQGTLVTVSS
VL: DIELTQPPSVSVAPGQTARISCSGDALGDKYASWYQQKPGQAPVLVIYDDSDRPSGIPERFSGSNSGNTATLTISGTQAEDEADYCQSYDYFKLVFGGGTKLTVLGQ
In the case of B10, the Activity result is recorded as “Antagonistic” under setting [1] and “Antagonistic” under setting [2].

B11: PRO-054: anti-FGFR3 IIIc antibody of WO 2006/048877 A2; SEQ ID NO: 42/50 (antibody, V domains shown)
VH: QVQLVQSGAEVKKPGASVKVSCKASGYTFTSYYMHWVRQAPGQGLEWMGWINPNSGGTNYAQKFQGRVTMTRDTSISTAYMELSSLRSEDTAVYYCARNMAYTNYQYVNMPHFDYWGQGTLVTVSS
VL: DIELTQPPSVSVAPGQTARISCSGDALGDKYASWYQQKPGQAPVLVIYDDSDRPSGIPERFSGSNSGNTATLTISGTQAEDEADYYCQSYDYFKLVFGGGTKLTVLGQ
With B11, the Activity result by setting is: under setting [1], “Antagonistic”; under setting [2], “Antagonistic”.
